# Results as given in patent publication US20110239327A1, “Nematicidal Effects of Cysteine Proteinases and Methods of Use Thereof to Treat Nematode Infestation” (priority 2007, published 2011).
# Assays:
# M. incognita J2 = assay: In planta bioassay, two soil applications: nematode infection of tomato roots; assay type: in vivo, M. incognita on tomato plants; conditions: two soil applications of enzyme (250 μM papain, 2.2 μM bromelain, 3.3 mM actinidin as printed), soil 16% organic matter, 11 days
# Method: Oxamyl is supplied as 10% liquid Vydate. 125 μl of a solution 1000 fold dilution of 10% formulation (kindly supplied by DK from NIU) was applied to 5 g of the soil mixture with 16% organic matter, to give a partial nematicidal effect. Soil mixtures were wetted with PBS pH 7.2, 16 hrs prior nematode application of 1000 or 2000 M. incognita J2. Infected soil mixtures were treated with water (control) or 250 μM of active papain in 16 mM of L-cysteine or a combination of Vydate and 250 μM of active papain in 16 mM of L-cysteine. After 48 hs tomato seedlings one month old were added to the treated soils. After 11 days the roots were washed free of soil and chopped to approximately 2 mm pieces. The root pieces of each tomato plant was placed in muslin bags and stained with acid-fuchsin. The stained roots were examined under microscope and all the nematodes present in the roots were counted. […] After 48 hours tomato seedlings one month old were added to the treated soils and after 11 days post infection nematode development inside root tissues was assessed as described above.
# The avermectins are macrocyclic lactones produced by the actinomycete Streptomyces avermitilis. […] After 48 hs tomato seedlings one month old were added to the treated soils and after 11 days post infection nematode development inside root tissues was assessed as described above. […]
# Steinernema feltiae = assay: In vitro effect on the beneficial nematode Steinernema feltiae; assay type: cell-based
# Method: (§1) Eggs of M. incognita race 1 from North Carolina State University, USA were collected from tomato-infected roots grown in a glasshouse at 23° C. in a 16:8 h light-dark regime. Eggs were extracted using 1% hypochlorite (NaClO) solution (Hussey and Barker, 1973) or by picking egg masses from tomato-infected roots. Juveniles (J2) were hatched from the eggs and egg masses in water. Heterodera glycines eggs were obtained from soil samples stored in Rothamsted-Research. Second stage juveniles (J2) were hatched from the eggs in water after 10 days. Pratylenchus penetrans were a gift from Dr. Deeren Anne-Marie from the Institute for Agricultural and Fisheries Research, Merelbeke, Belgium. The beneficial nematodes Steinernema feltiae and Heterorhabditis megidis were a gift from Dr. Paul Williams from Becker Underwood.
# (§2) Control wells were set up which contained J2s and distilled water with 16 mM L-cysteine. Each enzyme concentration and the controls were set up in duplicate (i.e. n=2). The actual number of active J2s per well was counted with the aid of an Olympus inverted microscope, prior to the addition of the enzymes, and then the J2s were incubated in the dark at room temperature for 2 hs, 16 hs, 24 hs or 40 hr. The number of live and dead J2s per well was counted after each enzyme incubation. The same procedure was followed when setting up further experiments to compare the effects of these enzymes with Heterodera glycines J2, Pratylenchus penetrans, Steinernema feltiae and Heterorhabditis megidis.
# (§3) The beneficial nematodes Hetorhabditis megidis and Steinernema feltiae were incubated with dilutions of actinidin, bromelain and pappain from papaya latex (see concentrations used in table 3). These nematodes reacted differentially to these cysteine proteinases (Tables 4 and 5). […] S. feltiae were dead at all concentrations of actinidin tested. […] After 16 hs of observation the enzyme solutions were diluted with water (to half of the initial concentrations) however, no change in nematode movement was observed after 24 hs.
# Heterorhabditis megidis = assay: In vitro effect on the beneficial nematode Heterorhabditis megidis; assay type: cell-based
# Method: as §1, §2, §3
# [1] = enzyme concentration A (Table 3): actinidin 3.3 mM, bromelain 2.2 mM, papain 250 uM
# [2] = enzyme concentration B: actinidin 1.7 mM, bromelain 1.1 mM, papain 125 uM
# [3] = enzyme concentration C: actinidin 840 uM, bromelain 560 uM, papain 62.5 uM
molecule,measurement,setting,value
"actinidin (protein, UniProt P00785 127-380, looked up, cysteine proteinase from kiwi fruit (Actinidia chinensis), Merops C01.007) Actinidain: LPSYVDWRSAGAVVDIKSQGECGGCWAFSAIATVEGINKIVTGVLISLSEQELIDCGRTQNTRGCNVGYITDGFQFIINNGGINTEENYPYTAQDGECNVDLQNEKYVTIDTYENVPYNNEWALQTAVTYQPVSVALDAAGDAFKHYSSGIFIGPCGTAIDHAVTIVGYGTEGGIDYWIVKNSWDTTWGEEGYMRILRNVGGAGTCGIATMPSYPVKYNNQNHPKSYSSLINPPAFSMSNDGPVGVDDGQRYSA",reduction of nematode infection of plants,M. incognita J2,99%
same,state of S. feltiae,Steinernema feltiae; all concentrations of actinidin tested,dead
same,nematode motility or behaviour,Steinernema feltiae; [1],All dead
same,nematode motility or behaviour,Steinernema feltiae; [2],All dead
same,nematode motility or behaviour,Steinernema feltiae; [3],All dead
same,nematode motility or behaviour,"Steinernema feltiae; enzyme concentration D: actinidin 420 uM, bromelain 280 uM, papain 31 uM",All dead
same,nematode motility or behaviour,"Steinernema feltiae; enzyme concentration E: actinidin 210 uM, bromelain 140 uM, papain 15 uM",All dead
same,nematode motility or behaviour,"Steinernema feltiae; enzyme concentration F: actinidin 105 uM, bromelain 70 uM, papain 7.5 uM",All dead
same,nematode motility or behaviour,Heterorhabditis megidis; [1],All paralysed
same,nematode motility or behaviour,Heterorhabditis megidis; [2],All paralysed
same,nematode motility or behaviour,Heterorhabditis megidis; [3],All paralysed
same,effect on H. megidis,Heterorhabditis megidis; higher concentrations,paralysed
same,effect on H. megidis,Heterorhabditis megidis; lower concentrations,only affected slightly
